Assay results from article PMC12305709, “Functional investigation of the RNA helicase MOV10 with respect to its interplay with factors involved in nonsense-mediated mRNA decay” (The Journal of Biological Chemistry, 2025).
Blank lines part the entries; values can stand above or below the molecule they belong to.

Legend:
UPF1 [1] = target: T1, UPF1 (Homo sapiens, UniProt Q92900-2 115-914)
T1 sequence: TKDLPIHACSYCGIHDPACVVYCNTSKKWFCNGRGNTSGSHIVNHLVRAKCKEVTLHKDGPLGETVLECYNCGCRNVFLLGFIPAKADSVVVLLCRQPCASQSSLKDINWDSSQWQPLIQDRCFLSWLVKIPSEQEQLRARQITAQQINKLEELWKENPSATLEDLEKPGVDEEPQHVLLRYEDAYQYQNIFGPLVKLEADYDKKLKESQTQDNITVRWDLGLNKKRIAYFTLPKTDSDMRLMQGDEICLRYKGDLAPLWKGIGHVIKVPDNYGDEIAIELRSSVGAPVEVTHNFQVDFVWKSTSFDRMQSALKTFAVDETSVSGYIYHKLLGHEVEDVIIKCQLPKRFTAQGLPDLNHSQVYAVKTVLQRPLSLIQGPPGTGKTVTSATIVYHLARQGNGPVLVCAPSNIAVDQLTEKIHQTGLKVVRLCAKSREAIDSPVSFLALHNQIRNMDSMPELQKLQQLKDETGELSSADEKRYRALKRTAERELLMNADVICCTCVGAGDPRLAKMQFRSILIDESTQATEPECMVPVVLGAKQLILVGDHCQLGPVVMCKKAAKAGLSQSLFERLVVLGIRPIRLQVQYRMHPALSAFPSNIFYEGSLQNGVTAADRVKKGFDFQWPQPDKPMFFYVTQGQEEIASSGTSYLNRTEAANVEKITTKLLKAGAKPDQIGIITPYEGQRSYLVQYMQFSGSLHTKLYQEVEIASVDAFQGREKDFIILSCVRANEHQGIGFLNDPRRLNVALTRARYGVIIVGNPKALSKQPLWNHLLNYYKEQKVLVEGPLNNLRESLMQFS

[2] = target: GST-MOV10NTD-UPF1hel (human) (UniProt Q92900)
UPF1 [3] = target: T1, UPF1; experiment: fluorescence anisotropy; no nucleotide; affinity comparable to P1; Kd only in figure; 20 mM Hepes pH 7.5, 100 mM NaCl, 1 mM MgCl2, 100 ug/ml BSA; 5 nM RNA; 30 min room temperature, read at 25 C; settings: protein: recombinant; tags: 6xHis, His-Trx or His-GST fusion in E. coli; label: 5' 6-FAM; single strand
[4] = target: T2, MOV10NTD-UPF1hel (Chimera 3) (Homo sapiens, UniProt Q9HCE1 1-264+=GSAGAAGSGA+Q92900-2:295-914, internal_change); experiment: fluorescence anisotropy; no nucleotide; 1 mM Mg2+; 20 mM Hepes pH 7.5, 100 mM NaCl, 1 mM MgCl2, 100 ug/ml BSA; 5 nM RNA; 30 min room temperature, read at 25 C; settings: protein: recombinant; tags: 6xHis, His-Trx or His-GST fusion in E. coli; label: 5' 6-FAM; single strand
T2 sequence: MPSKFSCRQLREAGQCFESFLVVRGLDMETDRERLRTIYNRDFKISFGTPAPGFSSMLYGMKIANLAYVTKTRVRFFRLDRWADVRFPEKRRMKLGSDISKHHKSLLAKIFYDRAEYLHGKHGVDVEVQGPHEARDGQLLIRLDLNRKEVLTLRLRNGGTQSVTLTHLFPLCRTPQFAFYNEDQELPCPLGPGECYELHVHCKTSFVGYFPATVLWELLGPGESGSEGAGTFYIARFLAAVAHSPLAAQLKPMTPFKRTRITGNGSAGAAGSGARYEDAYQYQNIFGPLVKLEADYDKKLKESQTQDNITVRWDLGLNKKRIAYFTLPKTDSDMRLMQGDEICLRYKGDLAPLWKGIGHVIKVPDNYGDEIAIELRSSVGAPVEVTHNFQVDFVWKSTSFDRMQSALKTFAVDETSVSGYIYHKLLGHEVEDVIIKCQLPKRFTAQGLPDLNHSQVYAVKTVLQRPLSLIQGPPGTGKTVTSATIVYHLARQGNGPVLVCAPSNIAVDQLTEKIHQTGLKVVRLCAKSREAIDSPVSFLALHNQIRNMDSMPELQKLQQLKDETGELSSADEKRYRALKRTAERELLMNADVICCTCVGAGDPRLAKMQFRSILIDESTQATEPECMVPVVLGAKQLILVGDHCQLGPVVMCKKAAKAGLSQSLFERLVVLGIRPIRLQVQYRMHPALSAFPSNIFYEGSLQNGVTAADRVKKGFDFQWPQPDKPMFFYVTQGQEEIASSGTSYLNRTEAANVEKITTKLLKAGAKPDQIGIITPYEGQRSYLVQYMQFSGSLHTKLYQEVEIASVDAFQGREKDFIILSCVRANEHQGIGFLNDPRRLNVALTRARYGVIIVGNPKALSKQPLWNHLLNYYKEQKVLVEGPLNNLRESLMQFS

Flag-MOV10hel = target: T3, Flag-MOV10hel (human, UniProt Q9HCE1 289-1001); experiment: co-IP; as a2, but cell lysates treated with RNase A (60 ug/uL, 10 min, 25 C); SDS-PAGE, Coomassie, densitometry of the UPF2 band; settings: both partners purified
T3 construct: MOV10, human, helicase core, residues 289-1001; also called helicase core of MOV10; source: HEK293, transfected, immunopurified on anti-Flag M2 agarose
T3 sequence (looked up): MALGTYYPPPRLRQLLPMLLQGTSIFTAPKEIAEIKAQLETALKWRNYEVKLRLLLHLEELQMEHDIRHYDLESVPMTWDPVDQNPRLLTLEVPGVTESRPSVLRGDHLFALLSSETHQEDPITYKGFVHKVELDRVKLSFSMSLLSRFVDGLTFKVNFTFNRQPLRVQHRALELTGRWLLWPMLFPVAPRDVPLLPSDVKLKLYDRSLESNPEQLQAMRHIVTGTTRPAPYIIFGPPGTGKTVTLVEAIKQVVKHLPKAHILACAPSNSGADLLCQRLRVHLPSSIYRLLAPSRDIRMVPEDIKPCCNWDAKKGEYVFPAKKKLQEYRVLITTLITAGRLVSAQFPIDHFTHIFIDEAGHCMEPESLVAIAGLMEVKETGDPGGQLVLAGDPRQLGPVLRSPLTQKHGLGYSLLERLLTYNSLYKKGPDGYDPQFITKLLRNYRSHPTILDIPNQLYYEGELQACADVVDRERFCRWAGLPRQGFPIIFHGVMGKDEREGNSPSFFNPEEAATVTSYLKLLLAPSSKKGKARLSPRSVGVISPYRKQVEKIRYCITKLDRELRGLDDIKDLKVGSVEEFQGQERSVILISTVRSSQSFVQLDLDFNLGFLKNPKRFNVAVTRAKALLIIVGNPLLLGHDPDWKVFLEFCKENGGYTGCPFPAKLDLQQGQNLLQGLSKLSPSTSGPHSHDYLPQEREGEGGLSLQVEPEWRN

Sequence of GST-MOV10NTD-UPF1hel (human) (Q92900 whole entry, looked up, the tested form may be a part): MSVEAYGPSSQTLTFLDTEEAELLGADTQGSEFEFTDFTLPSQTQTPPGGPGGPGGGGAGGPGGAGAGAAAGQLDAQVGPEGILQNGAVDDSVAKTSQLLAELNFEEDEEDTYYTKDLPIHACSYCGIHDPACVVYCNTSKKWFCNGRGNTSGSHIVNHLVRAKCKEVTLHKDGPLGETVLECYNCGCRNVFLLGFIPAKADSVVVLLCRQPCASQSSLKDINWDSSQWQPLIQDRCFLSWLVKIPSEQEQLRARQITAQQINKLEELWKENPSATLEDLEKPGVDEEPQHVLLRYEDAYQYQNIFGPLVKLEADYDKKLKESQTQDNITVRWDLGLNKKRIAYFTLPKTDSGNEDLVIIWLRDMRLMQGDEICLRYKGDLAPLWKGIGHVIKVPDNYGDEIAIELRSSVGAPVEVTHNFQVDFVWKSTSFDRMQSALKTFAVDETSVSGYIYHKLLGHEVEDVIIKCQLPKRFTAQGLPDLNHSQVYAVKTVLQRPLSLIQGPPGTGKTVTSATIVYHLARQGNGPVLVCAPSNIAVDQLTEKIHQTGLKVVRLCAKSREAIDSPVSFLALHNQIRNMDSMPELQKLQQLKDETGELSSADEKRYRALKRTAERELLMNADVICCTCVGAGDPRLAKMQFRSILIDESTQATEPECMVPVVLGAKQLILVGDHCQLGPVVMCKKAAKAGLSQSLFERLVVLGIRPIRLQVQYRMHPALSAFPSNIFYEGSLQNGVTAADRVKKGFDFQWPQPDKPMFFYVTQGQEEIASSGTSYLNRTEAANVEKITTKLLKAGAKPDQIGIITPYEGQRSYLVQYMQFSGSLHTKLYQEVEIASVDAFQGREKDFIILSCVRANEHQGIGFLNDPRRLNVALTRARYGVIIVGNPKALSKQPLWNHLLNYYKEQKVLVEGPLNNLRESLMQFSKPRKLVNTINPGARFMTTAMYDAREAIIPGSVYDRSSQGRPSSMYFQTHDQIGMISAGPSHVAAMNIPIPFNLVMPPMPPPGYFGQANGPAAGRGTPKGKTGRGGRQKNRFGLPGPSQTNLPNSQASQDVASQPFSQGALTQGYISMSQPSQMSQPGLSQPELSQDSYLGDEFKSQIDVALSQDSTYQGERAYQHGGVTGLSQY

RNA-dependent ATPase activity of UPF1 upon addition of UPF2 (1.5-fold excess), against UPF1 alone (UPF1 [1]): 2.4 fold | RNA-dependent ATPase activity of MOV10NTD-UPF1hel upon addition of UPF2 (1.5-fold excess), against the chimera alone [2]: 1.1 fold | nucleic acid unwinding activity of MOV10NTD-UPF1hel (300 nM) upon addition of UPF2 (600 nM), against the chimera alone [2]: 1.25 fold
Molecule: UPF2s (domain or fragment)

Molecule: UUUUUUUUUUUU (ssRNA) [U12 RNA]
binding result (UPF1 [3]): binds | Kd [4]: 36 nM

fold less UPF2 coprecipitated than with Flag-MOV10fl and Flag-MOV10NTD (Flag-MOV10hel): ~4 fold less
B1: UPF2 (near full-length variant, residues 121-1227) (domain or fragment, human, UniProt Q9HAU5 121-1227, looked up)
chain: MKEKEESIQLHQEAWERHHLRKELRSKNQNAPDSRPEENFFSRLDSSLKKNTAFVKKLKTITEQQRDSLSHDFNGLNLSKYIAEAVASIVEAKLKISDVNCAVHLCSLFHQRYADFAPSLLQVWKKHFEARKEEKTPNITKLRTDLRFIAELTIVGIFTDKEGLSLIYEQLKNIINADRESHTHVSVVISFCRHCGDDIAGLVPRKVKSAAEKFNLSFPPSEIISPEKQQPFQNLLKEYFTSLTKHLKRDHRELQNTERQNRRILHSKGELSEDRHKQYEEFAMSYQKLLANSQSLADLLDENMPDLPQDKPTPEEHGPGIDIFTPGKPGEYDLEGGIWEDEDARNFYENLIDLKAFVPAILFKDNEKSCQNKESNKDDTKEAKESKENKEVSSPDDLELELENLEINDDTLELEGGDEAEDLTKKLLDEQEQEDEEASTGSHLKLIVDAFLQQLPNCVNRDLIDKAAMDFCMNMNTKANRKKLVRALFIVPRQRLDLLPFYARLVATLHPCMSDVAEDLCSMLRGDFRFHVRKKDQINIETKNKTVRFIGELTKFKMFTKNDTLHCLKMLLSDFSHHHIEMACTLLETCGRFLFRSPESHLRTSVLLEQMMRKKQAMHLDARYVTMVENAYYYCNPPPAEKTVKKKRPPLQEYVRKLLYKDLSKVTTEKVLRQMRKLPWQDQEVKDYVICCMINIWNVKYNSIHCVANLLAGLVLYQEDVGIHVVDGVLEDIRLGMEVNQPKFNQRRISSAKFLGELYNYRMVESAVIFRTLYSFTSFGVNPDGSPSSLDPPEHLFRIRLVCTILDTCGQYFDRGSSKRKLDCFLVYFQRYVWWKKSLEVWTKDHPFPIDIDYMISDTLELLRPKIKLCNSLEESIRQVQDLEREFLIKLGLVNDKDSKDSMTEGENLEEDEEEEEGGAETEEQSGNESEVNEPEEEEGSDNDDDEGEEEEEENTDYLTDSNKENETDEENTEVMIKGGGLKHVPCVEDEDFIQALDKMMLENLQQRSGESVKVHQLDVAIPLHLKSQLRKGPPLGGGEGEAESADTMPFVMLTRKGNKQQFKILNVPMSSQLAANHWNQQQAEQEERMRMKKLTLDINERQEQED
notes: UPF2, human, residues 121-1227; also called near full-length UPF2
